Test: label from the status in PepcDB records

MSSSTERPALPLNECDPHWLRNLWVCVFGVFTTIVAMTLLLPFLPLYVEQLGVDNHAAVVLWSGATYGATFLSAAITAPLWGRLGDRYGRKLMLIRASLGMAVAMSLIGLAQTVWQLLLLRLLAGLLGGYASGATILVATQTPKARSGWALGVLSSGIMAGSLAGPLMGGVLPPLIGIRNTFFLAGGVIFITFLATLLLLREMPRKAPSRATDSALPAVVKLSGEQRRMITCMFVVASLVMFSTMSVEPIITVYLRQLKTDNVTMMAGVVMSATALGSILAASRLGRLADRIGYLPVLTSCLAMTALTLIPQAWVSNVWQLAALRFFMGLALGGLLPCVAAIIRHTVPNEVAGRMLGYSTSSQYLGQVLGPLAGGLLGGYLGIGSVFLGTAMVLAACSIMVGRMDMIRTPASSKL
protein production: failed

MSQQAARKLEKADIEAIFARSRFISAMNLEILDIDHAGSRFSVRMPLQDTYERGAPGTKQFHGGALAALIDVVGDFAIGMLVGGGVPTMNLRIDYLRPAVGDYVDGVAVVRKAGKSAAVVDIDILCPAGKLVAIGRGTYVPITG
protein production: failed

MNFQRFKAIVKKEVIQLKRDRASFGIAIMMPIVMIFLFGYAVNTELSNISMTVLDQSNSIESRELIQSFQNTGYFKVVSRVKSIEEVREKMDKGKVHAAIVIPPDFSNKLQMREESNVQLLVDGSDPTTARTAFSSGVVSGQQYGMKKLQGFGEKTSSKFQEGGVNVNTRVLYNPNLRNQNFTIPGLIGLIMQNITILLTAFALVRERERGTIEQLTVSPLKAGEIILGKLVPYIFIGYIDFLFSLVLGIKWFNVPINGSIPLLLLLGFAFVICALAIGILISTISKTQLQAMQLTILVLLPSILLSGFVFPREAMPKVIQLIGNVLPLTYFLNILRGIITKGVGVQYLSRDIAAMCCLAVILLTLSIVRFRAKPYNS
protein production: failed

MQDFGDNSGRAPAAGRSWRNTPSSFGVVAIAFHWTIAVLFVAQLALGYLMSRDSIDPVLQFNFFQYHKSIGFLVLALAVPRCLWSVFSRKPRAVDGEGPVSRFAARVAHSALLFLTLAVPLAGWAVASTSPLQIPSYVFDLVVVPGLPMTISDQAEAFWSDVHATLAYLAAVIVLLHVIAALWHHFIRRDPTLRRMLPLPDTTDNSRREISSGQ
protein production: failed

MSETDTAWIETALTSARPQAVGALLRYFRDLDTAEEAFQNACLRALKTWPQNGPPRDPAAWLIMVGRNVAIDEVRRARKQQPLPEDDQAISDLDDAEGALAERLDGSHYRDDILRLMFICCHPQLPATQQIALALRIVSGLTVKQIARAFLVSEAAMEQRITRAKAKVAEAGTPFETPGPIERSERLAGVAAMIYLIFNEGYSASGDTAEIRKPLCEEAIRLARLLLRLFQSEPEIMGLAALLLLQHARSAARFADDGSLILLEDQDRSLWNGSMIAEGLALIDKAMRHRRSGPYQIQAAIAALHARAATPEETDWAQIDLLYGALELAQPSPVVTLNRAVAVSKVRGPQAALDLIEPLAPKLGNYFHFHGVRGAFLMQLGRNDEARIAFDRAIALANTSAEAAHIRMHIDRLIRDSQPKSSNGSARQGAKAK
protein production: failed

MASTVDSNFFSSVPALHSNLGLLSPDQIELAKILLENGQSHLFQQWPELGVDDKEKLAFFDQIARLNSSYPGGLAAYIKTAKELLADSKVGKNPYDGFSPSVPSGENLTFGTDNFIEMEKRGVVEARNAAFVLVAGGLGERLGYNGIKVALPRETTTGTCFLQHYIESILALQEASNKIDSDGSERDIPFIIMTSDDTHSRTLDLLELNSYFGMKPTQVHLLKQEKVACLDDNDARLALDPHNKYSIQTKPHGHGDVHSLLYSSGLLHKWLEAGLKWVLFFQDTNGLLFNAIPASLGVSATKQYHVNSLAVPRKAKEAIGGISKLTHVDGRSMVINVEYNQLDPLLRASGFPDGDVNCETGFSPFPGNINQLILELGPYKDELQKTGGAIKEFVNPKYKDSTKTAFKSSTRLECMMQDYPKTLPPTARVGFTVMDIWLAYAPVKNNPEDAAKVPKGNPYHSATSGEMAIYRANSLILQKAGVKVEEPVKQVLNGQEVEVWSRITWKPKWGMIFSDIKKKVSGNCEVSQRSTMAIKGRNVFIKDLSLDGALIVDSIDDAEVKLGGLIKNNGWTMESVDYKDTSVPEEIRIRGFRFNKVEQLEKKLTQPGKFSVED
protein production: failed

MDPLKRVENELKKCVKCGACRAHCPAFATFGKEPAVARGKVALAQHLLKGDIELDDATYAAMSKCLLCGSCVEKCPNDVPTDEIVVVAREALSGQRGLTTFHAAVGRVIRNRSLMKFGAAAARILGPLFFRKVPETSGLRLRFPLPFLGGKRHIPSIAKKPFLDRHPEVIPGEPGKPRIVYFVGCMTNFCYPQVGEAALALFRHLGCTVIIPKNQQCCGLPGMSGGDLDTVRGLAEKNLAELERYEADYIMTACATCGGALHKFYPNLVGKRHPELAARLKAIAEKTVDAAQLLQKLGLNPEETGAGSDIRVTYHDPCHLRTRAITRQPRELLQGTPGVELAEMEGADKCCGLGGTFNVYHYESSLAINKMKSAAIINTGADAVVTGCPGCMMQLSDGLKQQRNRTRVLHTLEILARSIRP
protein production: failed

MPLPPDITFDSLALIKMHSQNMKRILEVTLAKFTVNLSIVTVYRYLTARAYLKKNIEAEFEILKDIYNIVPLLDDIAIKAAQIEANLIKKEITLDMEDIITATTAIYTNSLLVTDDPKRYEPIRRFGLDTMPLDKFIKEVELMVEKELI
protein production: not failed

MNMDPLIYVAALLFTGLLAGLATGLLGVGGGFIIAPVLFFLMEAGGTPPDIAIRTAFGTSLAIILPTALSGAHSHYRRKCVDSRIGITMGVLGACGSVAGVFTASASPAYVLRAFFGVLLILVSAQLLLSSRISPSGFGRNAAFPLGFLAGFLSGLLGIGGGVVLVPLLVMVAGFDVLEAVGTSSLVIAFTAASGTISYIFTGPGGPFTVGYVNLLQFLLVIVMSVPSSRLGALIAHRVDVRYIRYIFIILLLFTGLKMLL
protein production: failed

MKPPSAIMETALYADDLDAAEAFYRDVFGLEMVLKLPGQLVFFKCGRQMLLLFDPQESSRADANNPIPRHGAVGQGHFCFYADDKAEVDEWKTRFEALEIPVEHYHRWPNGSYSVYIRDPAGNSVEVGEGKLWGFE
protein production: not failed

MRRFGKWLGRVLLAALCAALVIGLWKGEEIKRLMAVNSLFEPDLIVRNFSNMDAAFLHTPVGEAQTPPSALPDGPKMTLPDGTAAWLAARKVTSLVVLSNGQLVHESYHLGTKAEDRRISWSLAKSYISALTGIVLAQGSIASLDDPVTRYAPRLKGGAYDGATVRNVLNMATGVTFDEDYTDYDSDINRMGRVLALGGLMDDFAAGLTQTFARPGSEWQYVSIDTHVLGMVIRAATGRSVVDLMGAHIITPLGLESTPYYLTDGAGVAFALGGLNMTTRDYARFGQMMAQHGAWNGRQIVPKNWVIDSTTASAPTGPDEYGYGYQWWMPRDARPREYMGRGIYGQYLYINEEQGVVVALTAADAAFRDADVQQQNIALFREIADRVQGDANGKR
protein production: failed

MADLALLVLTLLWGTTFALVKEALEIASPGVFLTARFGLAAVALLAAWALRPRAPLGDGFWRHGILLGLTMLVGFVLQTVALRHTTPARSGFITGLNVLVVPVVARWFLGRRVRPAFWVGVAFALAGLVMLTRPFTPGAVTEEVRFGDLLTLFCAVAYGLQVTFTSEWAPRHPLAPFVAVQVLVTLAGALVLAPLEGPRFDPAGAGHFALVVAFTGLVMTALAFFVMNWGQRHTTAVRAALIFSLEPAAAAVFSWLYYGEPLGPLDWAGGALMVLGVVAGEVGGVLEARAPRRARGERASTGPG
protein production: failed

MDEKNIVALLGQPNVGKTTLFNHLTGMKQRIGNWPGVTVEKKEGFFKKNNENYVVVDLPGIYSLMSDSIDQKIARDYIVENSKITVIDVIDTPNINRNLYLTIQLLELGISPILCLNLIDEAEKFGIYVNDQKLSEKLGVPVIRTSGRHKIGIDNLKNALYEFKPTEPVKITYSSLLEETIEKIIDKLENSQYKLDEIYARLPKRWIAISLLEKDPDVVNKFSKYPEFIKFVKDLKIEIENEIKHDVESYVVEQRYKKCDEILAGVMVNSELYEDIDTIVIHPVYGSLIFGVVLYTMYNFVFGLGDIFSGFIGSFFEILGNYLMNILPESFSGVIIDGLLAGVGGVLEFFPIVFLIMFSLSTLEDTGYLSRVTALTHSVMSTMGLSGKSFIPMITGFGCSVPALMGTRFISSHKERLITLLVTPLVPCSARFVIIGFFASFFFIEHAALFTLSILAITFAMLFIVSYVLSKFIKGEAEEYIFELPPYRIPDWDNIIKMTWAKSKEFLKKAGTVIAAGSILFYGFVNYPSPDANYAAVVGKIIEHVTQYMGLDWRAAISLIFGIFAKELVVSSFSILYPENISTAFSPLKAFVLTLVSVLYIPCLATLATLYLETRSLKWTAFGIGYNLVLATLVGIITYNIGTMLGF
protein production: failed

MKWIEIYEKLVNIDTGPDLPLEGKLRRTSFLTEILEDLGFRVEKREAAYVAFRGKPPYVTLIGHLDTVFPEGESKRRPFTIEGNIAKGPGVCDMKGGVVILLESLKRFLQQNDTDLCVVLNVDEELGSPLSGEVFKEVAGMSSHCLSFEPGRENGELISSRKGIISLWLFARGKKGHASRLDEGANAIVELAFKVVELTSLNGRFPNLTLNPTIVKGGAESNVTPDKAEVYFDVRYYDDKEYEFLEETLKRLSAVHPEANVSYTLKLRRLPMKEDPDFVNIVKMSAEEIGMTVSFVRATGGGDVAFFSQNGVPSIDGLGIPGGKMHSEDEYARLDQFEDRVNLVVHLLRKLGGEKNVR
protein production: not failed

DQHRPATLEALLAGVSLLLPMLDAIPNAAIFIKDSAARYALANNTLVQRCGLKRLQPLLGKTSAEVFPAQFGPGYTEQDRRVLKEGLVLEDQLELHLYGSREPGWCLTHKRPLYNPAGEIIGLVGISVDLQSAADSHP
protein production: failed

MNLFGQKDRGNHVSGVDRGKVIMYGLSTCVWCKKTKKLLTDLGVDFDYVYVDRLEGKEEEEAVEEVRRFNPSVSFPTTIINDEKAIVGFKEKEIRESLGF
protein production: not failed

MSEDAWKVNLIGNDEVHDLYTIVGNAAKQSMARDTDPMVSTILAYEGDWRKVFKRNTMTTFYGSKGFGMAQQHMDDLMEPLSREVMQKKRAKHPFGQTRKEHHAASRLLAAHAAAAIKGEIPLAIKAMEFIQKLSAMMAHEGKPLEWTTPIGLPWSNRYHDPVTERVNLWMHDHGVRRPFRPVVADGYKKTINKNHSVNGSAPNFVHALEHHHHHH
protein production: failed

DQDTLVQRAEHIPAGKRTPMCAHCNQVIRGPFLVALGKSWHPEEFNCAHCKNTMAYIGFVEEKGALYCELCYEKFFA
protein production: not failed

MDRSPERRTAVMIWGALVAGPALFLVVALALPLAGEPAPGIAQPLLLVLTGLVLVEVPLSWLWAVRARLAGKAGGEAISVEEQARTRLIIAAALCEGAALFAVVVFMVTRDARALPLFAIAFGALLAHYPGDRHWARLCRGSGAGSSAPPNRLMRG
protein production: failed

MVGRDNVENTAMGEALSPSQISGRVDAVWGNPMAWEAAGWQWERLPAIRRMVNRHVTGDEAIDPLSWFFQRVAKDQTLPVRRALVLACGAGGLERQLISQGWVSEVVAVDLSPGALAAARDAARQAGISGIDYRQADMNALDVEGPFDLAVGSSALHHCENLEGIFAVVRRVLVPGGWFFLNDYIGPNRLQYDAAQVLEVNRLLQCLPDPLVMNAAGFSRRGFRPASLAEVIAFDPSEAPRSADILRVMGEALEVETVRPYGGNLLYLVLSNLAQNFDPAQSGDAAAPDYLRLLIEASDHWRATRHGQDHFAAAIARQPIS
protein production: failed

PETVCWGHVEEVELINDGSGLGFGIVGGKTSGVVVRTIVPGGLADRDGRLQTGDHILKIGGTNVQGMTSEQVAQVLRNCGNSVRMLVARDPAGDISVT
protein production: not failed

MNNLQTKFPHIAIKLNEPLSKYTYTKTGGAADVFVMPKTIEEAQEVVAYCHQNKIPLTILGNGSNLIIKDGGIRGVILHLDLLQTIERNNTQIVAMSGAKLIDTAKFALNESLSGLEFACGIPGSIGGALHMNAGAYGGEISDVLEAATVLTQTGELKKLKRSELKAAYRFSTIAEKNYIVLDATFSLALEEKNLIQAKMDELTAAREAKQPLEYPSCGSVFKRPPGHFAGKLIQDSGLQGHIIGGAQVSLKHAGFIVNIGGATATDYMNLIAYVQQTVREKFDVELETEVKIIGEDK
protein production: not failed
